The assay addresses T1, human Claudin-1 (CLDN1) on EGI-1 cholangiocarcinoma cells (human, UniProt O95832 1-211).
T1 construct: whole, on cells; Endogenously expressed on human CCA cell lines; also called non-junctional CLDN1
T1 sequence (looked up): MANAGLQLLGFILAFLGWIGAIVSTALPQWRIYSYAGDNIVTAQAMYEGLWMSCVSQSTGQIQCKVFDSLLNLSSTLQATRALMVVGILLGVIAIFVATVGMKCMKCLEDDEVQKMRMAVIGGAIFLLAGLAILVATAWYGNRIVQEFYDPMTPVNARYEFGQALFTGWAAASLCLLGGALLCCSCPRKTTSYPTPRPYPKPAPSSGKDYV
The assay is described as follows: flow cytometry on EGI-1 cells, 10 µg/ml antibody, Alexa647 secondary, delta-MFI against isotype control. As to the method:
A first-line chemotherapy treatment for advanced CCA is cisplatin plus gemcitabine (Borbath et al., 48(7) Eur J Cancer 990-996 (May 2012)). To investigate the expression of CLDN1 upon treatment with cisplatin and gemcitabine, 1.5×10⁵ CCA EGI-1 cells were treated with cisplatin (100 nM) and gemcitabine (10 nM) for 24 hours. Cells were then collected, and CLDN1 expression was assessed by flow cytometry and Western Blot using CLDN1 specific Abs.
For flow cytometry, cells were incubated with the anti-CLDN1 mAb H3L3 or the isotype control mAb at a concentration of 10 μg/ml in triplicates per condition. Following incubation with the primary antibody for 1 hour, cells were washed and incubated with human Alexa647-conjugated secondary antibody at 4° C. for 45 minutes. Cells were subsequently washed and fixed with 2% paraformaldehyde (PFA). Data were acquired using Cytoflex B2R2V0 (Beckman Coulter) and analyzed using CytExpert 2.1 and FlowJo v10 (Beckman Coulter). CLDN1 expression was calculated as the difference of the mean fluorescence intensities of cells stained with anti-CLDN1 mAb H3L3 and isotype control mAb. The experiment was independently repeated three times.
Background: A flow cytometer gives signals particle by particle.

B1: anti-CLDN1 mAb H3L3 (antibody, human IgG1, kappa, V domains shown)
VH: QVQLVESGGGVVQPGRSLRLSCLGSGFSFSSYGMNWVRQAPGKGLEWVASISPSGSYFYYADSVKGRFTISRDNSKNTLYLQMTSLRAEDTAIYYCARLPGFNPPFDHWGQGTLVTVSS
VL: DIQMTQSPSSLSASVGDRVTITCKASQNVGGNVDWYQWKPGKAPKLLIYGASNRYTGVPDRFRGSGSGTDFTLTISSLQPEDVATYYCLQYKNNPWTFGGGTKVEIKR
notes: also called CLDN1-specific mAb H3L3; anti-CLDN1 H3L3 antibody
Turning to B1, the binding result is “binds”.

Source of the values: patent US20250326835A1, “USE OF ANTI-CLAUDIN-1 ANTIBODIES TO TREAT CHOLANGIOCARCINOMA” (Alentis Therapeutics AG, priority 2022, published 2025).
